Laboratory results published in patent publication US20130273089A1 (TOLERA THERAPEUTICS, published 2013).

Tests used:
[1] = molecular target: human αβ T cell receptor (αβ TCR) on T cells (human); assay: cell-based or functional assay
[2] = molecular target: T1, CD14 on cells expressing CD14 (monocyte lineage/NK cells) (UniProt P08571 20-345, limits assumed); assay: flow cytometry on PBMC from 6 donors
T1 construct: whole, on cells
T1 sequence (looked up): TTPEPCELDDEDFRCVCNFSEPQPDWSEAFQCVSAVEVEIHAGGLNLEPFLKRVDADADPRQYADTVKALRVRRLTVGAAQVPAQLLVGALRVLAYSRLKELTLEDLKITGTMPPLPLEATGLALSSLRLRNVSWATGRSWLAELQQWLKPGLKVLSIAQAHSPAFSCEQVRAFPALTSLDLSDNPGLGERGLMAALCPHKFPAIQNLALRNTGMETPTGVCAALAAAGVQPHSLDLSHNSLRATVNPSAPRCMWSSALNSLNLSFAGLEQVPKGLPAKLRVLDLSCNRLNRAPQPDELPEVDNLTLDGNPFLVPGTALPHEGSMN

B1: TOL101 murine anti-αβ TCR monoclonal IgM antibody produced by the hybridoma TOL101 MCB (ATCC PTA-13293) (antibody)
heavy: QVQLQQSGAELARPGASVKMSCKASGYTFTSYTMHWVKQRPGQGLEWIGYINPSSGYTNYNQKFKDKATLTADKSSSTAYMQLSSLTSEDSAVYYCARWRDAYYAMDYWGQGTSVTVSSESQSFPNVFPLVSCESPLSDKNLVAMGCLARDFLPSTISFTWNYQNNTEVIQGIRTFPTLRTGGKYLATSQVLLSPKSILEGSDEYLVCKIHYGGKNRDLHVPIPAVAEMNPNVNVFVPPRDGFSGPAPRKSKLICEATNFTPKPITVSWLKDGKLVESGFTTDPVTIENKGSTPQTYKVISTLTISEIDWLNLNVYTCRVDHRGLTFLKNVSSTCAASPSTDILTFTIPPSFADIFLSKSANLTCLVSNLATYETLNISWASQSGEPLETKIKIMESHPNGTFSAKGVASVCVEDWNNRKEFVCTVTHRDLPSPQKKFISKPNEVHKHPPAVYLLPPAREQLNLRESATVTCLVKGFSPADISVQWLQRGQLLPQEKYVTSAPMPEPGAPGFYFTHSILTVTEEEWNSGETYTCVVGHEALPHLVTERTVDKSTGKPTLYNVSLIMSDTGGTCY
light: QIVLTQSPAIMSASPGEKVTMTCSASSSVSYMHWYQQKSGTSPKRWIYDTSKLASGVPARFSGSGSGTSYSLTISSMEAEDAATYYCQQWSSNPFTFGSGTKLEIKRADAAPTVSIFPPSSEQLTSGGASVVCFLNNFYPKDINVKWKIDGSERQNGVLNSWTDQDSKDSTYSMSSTLTLTKDEYERHNSYTCEATHKTSTSPIVKSFNRNEC
chain: GDDEATILADNKCMCTRVTSRIIPSTEDPNEDIVERNIRIVVPLNNRENISDPTSPLRRNFVYHLSDVCKKCDPVEVELEDQVVTATQSNICNEDDGVPETCYMYDRNKCYTTMVPLRYHGETKMVQAALTPDSCYPD
notes: Murine IgM kappa (IgMκ); It was detected with anti-mouse IgM in flow cytometry; also called TOL101 antibody; TOL101 mAb
For B1, the calcium flux in CD4 T cells (Fluo-4) (% of CD4 T cells) [1] was 15 and the binding result [2] was “no binding”.
